Measurements: the domain aggregation screens of Martell et al. (2025)

Assay: soluble fraction after stress (log2 fold change); higher = more stays soluble; pooled small domains, quantitative proteomics
Conditions: stress: 75 degC
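Further: 20 min heating vs room temperature control held 20 min.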

Sequence	soluble fraction (log2)
HMEVGKRIAEIRKENRMSQEQFGQLFHVTRQTVSNWENAKSYPDLQTLVKISELFEITMDELLK	-1.45
HMEVKVSGHLEAIGGVYHMKLSWIDDAGKRRRKSKSTGLAERGNKKRANDMLIDFMREQEAEIAASGD	-2.05
HMEVLSKRGSTGTEVINIQKKLKNWGYYTGSVDGIYGKLTEEAVRYFQRTNGLTVDGIAGKNTLAAMGIA	-0.619
HMEVNLEPLIALLRKHRDLDLSGYSKSTLGRRITYFMGLNKISSIDELGRRLAEDDLLFQEFLDKLT	-0.264
HMEVSLEDKMDYLTNYATTHKNFSFRNLLESSSGKIEVIVTFLAILELMKMGRINISQEHIFDDIIIESRI	-2.68
HMEVSTRQVRAALRDIIEAEDKKRPLSDEAITARLREQGLPVARRTVAKYREQMGILAARLRK	-0.662
HMEVVRVEPGATVRDLGEALGVPPTRIIQILMGLGEMKTVTQTLSTEEIELVAEELGRRVEV	-0.108
HMEWVVVPDVRRQLLPEAQRRVNKARLRLEVAGGWPAEPLLAMVVDQKPGPETRVPLNSIVVVVVRNLP	-0.981
HMEYELYALKEEVLKRLTREDRELLILLFEERRTIHAVAQRLGLSDSAVYKRRTQLVNKVKVIASMLM	-2.22
HMEYKNYYDSPVGRLELLSDGVSLTAVLFENQQGDGTREENTSLAIFKEATQWLDAYFKGDNPEITIPL	0.0228
HMEYKTGIINTNKVRVRNAADADATVIFAINKDIKVKILAEENGFYKIGVSVKNRGNGEDLIGFVKKELIT	-1.81
HMEYQTVEKSEAEQIIQELEKAERLALKVYSKNDIITGISVSDGKSYYFSAELVPMLKNIIENPEIKIL	-0.795
HMEYRVRDKMTDILELLTEHRGRIALRDAFPTGTREELLAAFLALLELTKMQTVIVYQDRLYDDIQIVMK	-0.354
HMEYSTLEIYSQTKKDLIEKSPHLNKVVYDKDDGYIYLLSFEKEDDLTSFKSNIENDSDIKRIEANV	0.121
HMEYTVNRLAQISGVSKRTLRYYDEIGLLRPERVNPNGYRIYGQMQVDLLQQILFYRELGLPLEEIREII	-0.502
HMFAATGVVNAPSGLVLRETASKGGNPLATVPDKAQVEIVEEDGEWYKVKVNEQTGYLFAEFVNKTE	-0.0895
HMFAQDQLFKKDNSKVDVKILEINTTEIKYKLFTYQDGPTITVAKKDVALIIYQNGVHEVIT	-2.53
HMFAVPAPEVDDILSEKKVDVLLLGPQVRYLLEQFTEKLKDKNIPIGVIPMVDYGMMNGSKVLALAEELIG	0.131
HMFDFGNHLRMLREKHGISQEELGRRVGRAGSVISNYENNIKIPTLDVLTTMARIYDVSLDYLVG	-1.59
HMFDFNNLSSLSDVELSVYRFVVNNPEKVAYMRVRDIAQKTHVANSSVMRFVHKIGFASFPEFKAYLKNIN	-0.997
HMFDITKEVLKQSGLYNLYKNDESLEGINRIQNIEELLNGIKDFVENNEKSQASVSSFLQDVALATDQ	0.258
HMFDKVSVNNLAEAIGRLDGIYQDVLRLYYVHELPSKEIGKILNINHLTVNTRLKRAREKLFKMLKEE	-3.11
HMFDNPLSERDKEILNHISMGKSNKEIANQVGLAEQTIKNTISVILDKTFTSNRAQAASMATKNKW	0.666
HMFDPTDLPEKQLMVYEIIKSNNGINMTNIASLLGFNKTTVDNAIRALKKKEIVVFKGTNRSGGYFNT	-1.91
HMFEDEYLETMYAFYETDPQALVRTGDLASSLKVSPASATEMVQRLASKGFVDYIPYKGASLTELGLAM	0.0785
HMFEDYLRMKGLSIVSFSKQTGIPISTLRNLNKIRYDKWKIRYLEELSNVLNKTIQEIIEELKNMG	-3.5

Sequence	soluble fraction (log2)
HMFEFFKGIYSISLLKKDGIFFVTFKDENKEAVKHIFPEKPTALELGIKVMEMFEYKERYDGII	-0.455
HMFEPLTDREREVLQALADGLSDKEIAERLYISPATVRTHITAILGKLDANSRLQAVVVAARHNLVTL	-0.478
HMFERISELLTDEELAVYKRGRNANASSVPKHADIADYRRATGVEALFGYLYIKGEIDRINQLFELA	-0.154
HMFESQYIGKIATAITDISAFSGRLKIYDENWEARTLGEDAPEIKKGAKVKIVRHDDLTMFVEKK	-0.397
HMFETLVLALAQAWPAERGPVEALQFEGGRLSLQRSGFADEQVEALRQRLSSEGWTLQTEQGRLILNKAG	-1.17
HMFFDSDTDIQNALNAENSIKKYQLFRTQTLYNSAQSDIDFVNQPEVKAKLFDALENLKNKLGFLAEPT	-0.0329
HMFGIEIPEEAGKLQDYTLTDDDLEGGNTLKEIQFPQGARVVIIRRDDKFIIPDGSVELQSGDQLLIIYGE	-1.59
HMFGSKDVKRAIEDYAAAMSSQPRALSAPQRKVLIRHLATSGLLQLRGAAKIVADELGISRASVYNALKV	-1.53
HMFHDPTMEETLINLKGITNEVLSLLSSSKIKKLEDLAEMSVPELRDIVENISDEEASALIMEARKPWF	-0.22
HMFHGEGVQANNIQAYIVLKMAAVNGAEDALDTADEVSEKMSREDLETATQVLGQIFRKYLMELQSA	-1.22
HMFIKVEVPDLTGMTLTEVRKALEEKNLKMGDIRPAGQTSLVAKVINQSPQAKMVVDEYSEVSIQFEE	-0.985
HMFIMQTVALGSEGPDVRALQSILNRIGYNAGTVDGIFGSRTRQAVIAFQRNNGLAADGVAGPATWG	0.188
HMFINITAITGNNYNTPDAARNALPNTYNKKIGLVFTYRDLTNRYRVYLYNSETSNYIPLDSYM	-3.5
HMFIPGDSVRVHVKVVEGSNERIQMFEGVVIARQGSGVRENFTVRRISYGVGIERTFPVHSPRL	-0.226
HMFISVDGLIHMGRTHLVILGGVEFARGDMIPETGEVVKSIGADSVVLELPDTGMRRTLNFV	-2.97
HMFKINNIIVSGLSEKSNLQTSEEIKNILFENIFFIKKDVLFKILEKNNLINSFEIKKIYPDTIEVKIKKT	0.0453
HMFKITNTLNKTAEVYLTIPENKKGKGKIMISVNGAFHELEAMTENDKIQSGAVVKVVRIENDNILIVET	-2.18
HMFKMRVNGKEVIGMAITAKPQANPIDVADEIKKFVIDANTKLPSTMKLEVLYDATGIFRASISEVIS	-1.08
HMFLDKDTLNQLYRFGIALTGNEQDSQDVLHTAIERFLRNKPQQINQQAAYIRTIMRNYWYDELRKLKTQ	-3.06
HMFLPETEVKSFFHRGITKISPSLAMDIADFFRMPFAVILKRALALEVISDEQYRSFMTVKPEHV	0.137
HMFLSQQDINRANAASVTDMGDIIRRTFERNAAEINGLELSDAEKKDAVKQMATLATTALKTAAGAVNPY	-0.0457
HMFLSSEERRERIIEVLRQQDEVTVVELSHRLGVSEVTTRKDLQQLEEQGYLTRVRGGAVVSGRGQL	-0.0348
HMFMNFAEHLMALRKQRGWSQEELGSQIGVTRQTVSKWEMGQSTPELEKLVELSRLFGMSIDQLVGL	-0.118
HMFNISEKLKKYRNALGLTQTEVAEKIEITKPTYASYEKGKDISIGTLKKLADLFEVSFESFFSE	-0.283
HMFNLFPHLSVLRNITLAPQKVKGLNRSESNEIAMSLLERVGIPEQSDKFPSQLSGGQQQRVAIARALAM	-0.502
HMFPELSEEEQIIVSLLQKQPDGLQINTLVVESNIPVNRMSGILFELEMKGIIRMAAGGVYRLL	-1.35

Sequence	soluble fraction (log2)
HMFQEGLVAPPAYTRPESFRGWEVPEILRSGNFPAIAKWQHEESLRLTRERRPAMLEAYERRT	-0.107
HMFQNYTDAVVVASKTFFYNMPDESTRKSAYLIQGDRIMVEKSQRNFVYVTFTNEASGRTTTGWLKSDDLE	-2.65
HMFSDDEINRLKARDSILVNLRDSEKQVWELYTDGKTVQNIANQLNKHKQSISATIINIKNKISRKQNMLK	-0.709
HMFSGVQLGQAISEAIKRKNVSQKEVADHFGVKQPSVSGWIKNGRIDKKHLDKLIDYFSDVVTPSHFGIE	0.27
HMFSQDQIFLRSGEKIDARVIEVTPEFIKYKSKANPEGPLYSKKITDVLLITYANGTTEVYE	-0.764
HMFTDAEIKQFAAAAVEVTKIQQDSTISAADKQPKMLAVVQSSGLPPEKFNQIGQAAAADPALQQRIQA	0.038
HMFTEPQKLVKRILNMLGHRYDDASIQARSDFQASNNYHKVQVKKKRESMEEYTAWLEEMYDAYRIN	-1.49
HMFTFEDMDKFESLLTTGLTDVQRRIYSLVTHDGKEYDLIAETLGISVEAVRMHMSRARKKIRENYKKID	-3.38
HMFTIGENIRDLRLERAITQEQLAEQLNVSAPAVSKWERGEAYPDITLVPKLAEILGVSTDKLFGVD	0.0273
HMFTKYSPDFKLSVILDMRKNNLGYGEVVRKYWNLDSYKESDRHRSQVRLWERIFLEEGVEGFM	-4.63
HMFTLDDLQATYDIFERAEQNSDAMLAFQKVITAEGLDFDLTSPQGIVDFFKGAAPTEIYDLYEAS	-0.547
HMFTNSTSSRQLTNSDDTLRLNISSQTRQMLPNGQPFGGSLSGKLLLVIYGATTRSIPAQTTPEKIVV	-0.198
HMFTSVDVAPDLRTAKVFYSVLGRKKSDKEINIAINQKRKAFKKFMGPELHLKNIPDLHFYYD	-0.369
HMFTYDLSERELTIIELVAKGLNNKELADTLFLSEGTIRNYLSTLLNKLDLRDRTQLAIFYYQHL	-2.16
HMFVEEGSLKKITFDTYEFNITDNLKSLRVTYQGLLPNLFREGQGVVIEGILLEQNYIQANTVF	0.249
HMFVTGTTIKKLREEKRMTQGELAQMIGVSDKAVSKWETGRGLPDISLLEPLSRALGISVAELFAGQH	-0.612
HMFWEGYLAARREQFLKDQQVLLGNEFRSNPDFWLEVASKEWAVVEERLSTGADVSEEVQETMGLDF	-2.13
HMFYNSSDNAYKILEINKSATVDEIKAAYRKMAKKYHPDKVIHLGQEHQKGAEEKFRQVQEAYEELQKERG	0.19
HMGAAVEVISLRYRSAAELLPIVRSLLSTEGKISADERTNSLIIVDSDEAVARVIHSLATLDT	-1.3
HMGADGIPGKNGENGETSYVHFAYATSADGKTGFSTTDTVGKTYMGQYADFEKADSEDPTKYRWGKFQGP	0.0581
HMGAFAIHTASELSAGMRIRHERFGPGVITGIDTANPASGARIQVDFDNGTSKTLLLSYAKFQI	-2.53
HMGAGKVVDGVTYDFVFDVDVADGQPPLRLPYNRGEDVYQAAERFILRNELPATYREQIVNFIVQNTPG	-0.116
HMGAISGEQREFYTVFRGHLNSHVGEFKVEDIENLLMKAKTEVPDLLEEEFLKMGEAILNRYRN	0.0818
HMGAKEHLAGETLRMAVELLSEKQGIPAEQALIRFISSPVYDALYDLDTGMWTQGPTRLLEAFEALE	-2.01
HMGALARLLASVEQELGVTRDRMTRTQKQEAVTLLNEWGAFTLRKSVEDVAEALGVSRFTVYNYLERAEA	-2.99
